Test results from US20070293656A1, “COLLAGEN BINDING PEPTIDES” (Epix Pharmaceuticals, Inc., priority 2005, published 2007).
Bridge positions count the residues as written; N and C are the ends. Square brackets hold non-standard residues; d marks the D form. Primed or numbered codes have the meaning given here. Ends that are not written are not given here. Gd^T″ = GdDTPA-thiourea

What follows are binders tested against human collagen type I (acid soluble, extracted from placenta, Sigma C7774) (human) (UniProt P02452) (assay: dried collagen assay).
Sequence of human collagen type I (acid soluble, extracted from placenta, Sigma C7774) (human) (P02452 162-1218 limits assumed, chain 1 of 2): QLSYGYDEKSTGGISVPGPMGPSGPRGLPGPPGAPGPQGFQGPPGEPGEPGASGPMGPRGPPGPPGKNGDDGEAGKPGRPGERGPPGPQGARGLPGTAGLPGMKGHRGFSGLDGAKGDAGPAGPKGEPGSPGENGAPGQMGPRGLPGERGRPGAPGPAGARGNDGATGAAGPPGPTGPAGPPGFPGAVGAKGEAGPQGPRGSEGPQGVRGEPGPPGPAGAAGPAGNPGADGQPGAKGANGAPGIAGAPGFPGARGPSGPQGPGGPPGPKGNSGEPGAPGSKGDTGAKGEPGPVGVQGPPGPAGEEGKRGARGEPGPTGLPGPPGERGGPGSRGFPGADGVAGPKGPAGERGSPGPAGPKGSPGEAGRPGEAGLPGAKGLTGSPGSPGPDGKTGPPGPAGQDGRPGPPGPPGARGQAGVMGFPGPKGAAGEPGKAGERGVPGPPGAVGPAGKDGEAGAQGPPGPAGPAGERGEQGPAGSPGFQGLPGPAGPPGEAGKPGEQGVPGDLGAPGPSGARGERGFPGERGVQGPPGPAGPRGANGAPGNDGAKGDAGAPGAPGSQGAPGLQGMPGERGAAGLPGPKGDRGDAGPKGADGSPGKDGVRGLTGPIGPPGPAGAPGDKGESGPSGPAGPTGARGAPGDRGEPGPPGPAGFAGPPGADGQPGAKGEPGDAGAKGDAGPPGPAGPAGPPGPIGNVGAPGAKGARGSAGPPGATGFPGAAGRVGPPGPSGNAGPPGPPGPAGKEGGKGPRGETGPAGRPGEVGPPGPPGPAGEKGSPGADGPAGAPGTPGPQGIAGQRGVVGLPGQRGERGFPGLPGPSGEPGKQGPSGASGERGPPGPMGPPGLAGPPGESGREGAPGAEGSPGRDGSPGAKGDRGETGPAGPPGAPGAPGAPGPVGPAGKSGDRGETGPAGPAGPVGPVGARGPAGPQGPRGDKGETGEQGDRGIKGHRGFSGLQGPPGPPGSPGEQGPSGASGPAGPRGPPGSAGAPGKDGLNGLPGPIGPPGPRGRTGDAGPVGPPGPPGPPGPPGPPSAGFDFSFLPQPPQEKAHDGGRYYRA
Sequence of human collagen type I (acid soluble, extracted from placenta, Sigma C7774) (human) (P08123 80-1119 limits assumed, chain 2 of 2, further chain): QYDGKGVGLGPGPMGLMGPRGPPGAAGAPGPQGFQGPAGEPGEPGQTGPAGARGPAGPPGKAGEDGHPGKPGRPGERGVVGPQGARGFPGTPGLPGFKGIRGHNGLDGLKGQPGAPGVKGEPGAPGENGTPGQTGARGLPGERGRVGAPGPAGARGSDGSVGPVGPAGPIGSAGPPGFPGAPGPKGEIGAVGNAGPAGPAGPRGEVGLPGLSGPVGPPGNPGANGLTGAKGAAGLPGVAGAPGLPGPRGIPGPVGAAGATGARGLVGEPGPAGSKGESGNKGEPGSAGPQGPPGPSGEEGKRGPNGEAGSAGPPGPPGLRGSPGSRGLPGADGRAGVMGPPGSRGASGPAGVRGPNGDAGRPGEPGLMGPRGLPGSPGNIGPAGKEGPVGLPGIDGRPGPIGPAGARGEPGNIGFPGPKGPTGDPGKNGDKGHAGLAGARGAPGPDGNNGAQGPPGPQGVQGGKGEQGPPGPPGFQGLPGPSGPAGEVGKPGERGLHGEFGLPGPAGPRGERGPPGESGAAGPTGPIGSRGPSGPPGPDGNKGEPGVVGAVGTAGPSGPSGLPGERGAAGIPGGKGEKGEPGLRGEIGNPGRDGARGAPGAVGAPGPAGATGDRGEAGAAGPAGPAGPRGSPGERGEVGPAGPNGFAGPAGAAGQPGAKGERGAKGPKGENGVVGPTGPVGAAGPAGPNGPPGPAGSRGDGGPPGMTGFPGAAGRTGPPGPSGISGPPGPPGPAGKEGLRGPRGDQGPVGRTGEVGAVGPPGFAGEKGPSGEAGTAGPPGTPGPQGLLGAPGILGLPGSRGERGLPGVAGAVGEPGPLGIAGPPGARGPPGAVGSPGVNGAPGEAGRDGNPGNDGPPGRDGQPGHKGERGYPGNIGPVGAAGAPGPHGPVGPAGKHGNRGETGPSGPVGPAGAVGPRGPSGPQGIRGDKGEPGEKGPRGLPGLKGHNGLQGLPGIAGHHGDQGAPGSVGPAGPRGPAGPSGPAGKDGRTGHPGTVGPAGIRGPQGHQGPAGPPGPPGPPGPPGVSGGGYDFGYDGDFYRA

Binder | % bound
WQVCADSPGVITYCYTY (disulfide 4-14 (inferred)) [SEQ ID NO: 98] | 5%
PWWCHEMPSMCFGF (disulfide 4-11 (inferred)) [SEQ ID NO: 3] | 2%
FSECVWVNAYQCEYF (disulfide 4-12 (inferred)) [SEQ ID NO: 113] | 3%
GWQCFGASDWHCTWV (disulfide 4-12 (inferred)) [SEQ ID NO: 8] | 9%
{Gd^T″}-GQWHCTTRFPHHYCLYG[dK](Gd^T″) (disulfide 5-14 (inferred)) [Comp ID 808] | 25%
PWTCSGDEYAWHCNYE (Gd^G-PWTCSGDEYAWHCNYe) [Comp ID 824] | 12%
{Gd^T″}-DWTCS[dY]DEYTWHCNYE (disulfide 4-13 (inferred)) [Comp ID 829] | 20%
GQWHCTTRFPHHYCAYG (not fully specified; Gd^T-GQWHCTTRFPHHYCAYG) [Comp ID 855] | 27%
GQWHCTTDFPHXYCLYG (not fully specified; Gd^T-GQWHCTTDFPH-Dpr-YCLYG) [Comp ID 886] | 8%
GQWHCTTDYPHHYCLYG (not fully specified; Gd^T-GQWHCTTD-Y(3-Cl)-PHHYCLYG) [Comp ID 895] | 7%
SWSCGGDHNAWKCQYS (disulfide 4-13 (inferred)) [SEQ ID NO: 36] | 7%
GQWHCTTRFPHHRCLYG (not fully specified; Gd^T-GQWHCTTRFPHHrCLYG) [Comp ID 902] | 7%
GQWHCTTRFPHHTCLYG (not fully specified; Gd^T-GQWHCTTRFPHHtCLYG) [Comp ID 905] | 6%
LWNCHGTDANWKCVLN (disulfide 4-13 (inferred)) [SEQ ID NO: 37] | 7%
GWSCHGDAADWPCQWS (disulfide 4-13 (inferred)) [SEQ ID NO: 38] | 6%
GWQCSGDASVWNCDWI (disulfide 4-13 (inferred)) [SEQ ID NO: 39] | 6%

Each binder was assayed against T1, human collagen type I (acid soluble, extracted from placenta, Sigma C7774) (human, UniProt P02452 162-1218; P08123 80-1119) (assay: dried collagen assay).
T1 construct: gelled and dried as a fibril film in the assay; also called dried human collagen; h-Collagen
T1 sequence (P02452 162-1218 limits assumed, chain 1 of 2): as the sequence (P02452 162-1218 limits assumed, chain 1 of 2) above
T1 sequence (P08123 80-1119 limits assumed, chain 2 of 2): as the sequence (P08123 80-1119 limits assumed, chain 2 of 2, further chain) above
Method: An additional 90 μL is reserved in a HPLC glass vial as a measure of the total concentration.

Binder | % bound
AWTCVGGEKTWGCVWN (disulfide 4-13 (inferred)) [SEQ ID NO: 33] | 12%
MWDCTGNSAEWRCEMQ (disulfide 4-13 (inferred)) [SEQ ID NO: 34] | 11%
YWVCGGDHQSWHCSHP (disulfide 4-13 (inferred)) [SEQ ID NO: 35] | 8%
EWRCRGDSSSWLCDYT (disulfide 4-13 (inferred)) [SEQ ID NO: 40] | 3%
VWACRGGTTNWHCDL (disulfide 4-13 (inferred)) [SEQ ID NO: 41] | 1%
TWRCDQFKGKWVCRGG (disulfide 4-13 (inferred)) [SEQ ID NO: 42] | 40%
PWQCYSDKTSWVCNLY (disulfide 4-13 (inferred)) [SEQ ID NO: 43] | 30%
GWNCYEYDSQWICDHL (disulfide 4-13 (inferred)) [SEQ ID NO: 44] | 28%
EWQCTQYANQWNCKYN (disulfide 4-13 (inferred)) [SEQ ID NO: 45] | 25%
GWVCLQKGPKWVCDWD (disulfide 4-13 (inferred)) [SEQ ID NO: 46] | 23%
PWTCRMTENTWVCDLN (disulfide 4-13 (inferred)) [SEQ ID NO: 47] | 22%
AWSCWIVEGRWNCSDI (disulfide 4-13 (inferred)) [SEQ ID NO: 48] | 22%
AWFCSQKNRLWSCGET (disulfide 4-13 (inferred)) [SEQ ID NO: 49] | 19%
KWFCELMQDQWQCGSK (disulfide 4-13 (inferred)) [SEQ ID NO: 50] | 18%
KWFCELMHDQWQCGSK (disulfide 4-13 (inferred)) [SEQ ID NO: 51] | 18%
RWSCWLDENGWKCDGT (disulfide 4-13 (inferred)) [SEQ ID NO: 52] | 15%
GWFCKLVDGNWECSTK (disulfide 4-13 (inferred)) [SEQ ID NO: 53] | 12%
MWNCTMTKSGWRCFEK (disulfide 4-13 (inferred)) [SEQ ID NO: 54] | 12%
SWNCHWRNQGWLCSGG (disulfide 4-13 (inferred)) [SEQ ID NO: 55] | 12%
SWNCHMIRNEWRCTGH (disulfide 4-13 (inferred)) [SEQ ID NO: 56] | 11%
RWTCDLQRGDWQCSTI (disulfide 4-13 (inferred)) [SEQ ID NO: 57] | 11%

Binder | % bound
GWVCMMRETDWNCSI (disulfide 4-13 (inferred)) [SEQ ID NO: 58] | 10%
HWQCRLTDYGWNCDER (disulfide 4-13 (inferred)) [SEQ ID NO: 59] | 10%
EWHCVLNDFRWTCGGD (disulfide 4-13 (inferred)) [SEQ ID NO: 60] | 10%
KWSCYMVDHQWYCREF (disulfide 4-13 (inferred)) [SEQ ID NO: 61] | 9%
HWSCYLGDNGWNCHDR (disulfide 4-13 (inferred)) [SEQ ID NO: 62] | 9%
NWYCSQALDNWSCKLR (disulfide 4-13 (inferred)) [SEQ ID NO: 63] | 8%
TWICSHNDKGWTCGDQ (disulfide 4-13 (inferred)) [SEQ ID NO: 64] | 8%
HWQCGEKMSFWSCELV (disulfide 4-13 (inferred)) [SEQ ID NO: 69] | 3%
FWRCALLDGHWQCTDH (disulfide 4-13 (inferred)) [SEQ ID NO: 70] | 3%
SWHCALMGSRWVCGQN (disulfide 4-13 (inferred)) [SEQ ID NO: 71] | 3%
EWHCVFIQGDWLCNSG (disulfide 4-13 (inferred)) [SEQ ID NO: 72] | 1%
SWHCALVENSWQCSEA (disulfide 4-13 (inferred)) [SEQ ID NO: 73] | 1%
FGACDIFPTFHTCPGV (disulfide 4-13 (inferred)) [SEQ ID NO: 76] | 1%
QWFCEMDEYGKWNCGMM (disulfide 4-14 (inferred)) [SEQ ID NO: 81] | 3%
LWTCSMDRNYDWVCGEK (disulfide 4-14 (inferred)) [SEQ ID NO: 82] | 3%
GWACNTTSKGDWECTNL (disulfide 4-14 (inferred)) [SEQ ID NO: 83] | 3%
HWSCDLAMDNEWFCSTK (disulfide 4-14 (inferred)) [SEQ ID NO: 84] | 3%
GWTCSQPGANVWNCTMQ (disulfide 4-14 (inferred)) [SEQ ID NO: 85] | 3%
SWYCDWDDRKGWMCGSD (disulfide 4-14 (inferred)) [SEQ ID NO: 86] | 2%
HWTCDQAKGGAWSCSST (disulfide 4-14 (inferred)) [SEQ ID NO: 87] | 1%
